In US20150139997A1 (Genmab, published 2015):

Assays:
DR4 (R&D Systems) = target: T1, DR4 (R&D Systems) (UniProt O00220 24-239, limits assumed); test: ELISA, coated antigen 50 ng/mL
T1 construct: Bought reagent coated at 50 ng/mL; also called TRAIL-R1

DcR1 (R&D Systems) = target: T2, DcR1 (R&D Systems) (UniProt O14798 26-221, limits assumed); test: ELISA, coated antigen 50 ng/mL
T2 construct: Bought reagent coated at 50 ng/mL; also called TRAIL-R3
T2 sequence (looked up): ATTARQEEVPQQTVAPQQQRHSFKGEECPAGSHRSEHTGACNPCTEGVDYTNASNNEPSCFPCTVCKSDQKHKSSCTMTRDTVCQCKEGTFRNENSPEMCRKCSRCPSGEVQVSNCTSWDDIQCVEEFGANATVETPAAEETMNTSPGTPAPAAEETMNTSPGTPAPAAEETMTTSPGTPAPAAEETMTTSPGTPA

DcR2 (R&D Systems) = target: T3, DcR2 (R&D Systems) (UniProt Q9UBN6 56-211, limits assumed); test: ELISA, coated antigen 50 ng/mL
T3 construct: Bought reagent coated at 50 ng/mL; also called TRAIL-R4
T3 sequence (looked up): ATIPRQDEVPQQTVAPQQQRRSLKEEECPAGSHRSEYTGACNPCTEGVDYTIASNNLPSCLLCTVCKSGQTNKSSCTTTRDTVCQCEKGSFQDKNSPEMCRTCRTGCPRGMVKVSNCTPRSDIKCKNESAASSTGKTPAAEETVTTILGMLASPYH

Fas (R&D Systems) = target: T4, Fas (R&D Systems) (UniProt P25445 26-173, limits assumed); test: ELISA, coated antigen 50 ng/mL
T4 construct: Bought reagent coated at 50 ng/mL
T4 sequence (looked up): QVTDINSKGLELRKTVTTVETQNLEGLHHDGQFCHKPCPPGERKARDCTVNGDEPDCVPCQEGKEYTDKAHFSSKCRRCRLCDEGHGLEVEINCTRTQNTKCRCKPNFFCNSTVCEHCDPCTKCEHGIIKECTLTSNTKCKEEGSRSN

FasL (Tebu-bio) = target: T5, FasL (Tebu-bio) (UniProt P48023 134-281, limits assumed); test: ELISA, coated antigen 100 ng/mL
T5 construct: Bought reagent coated at 100 ng/mL
T5 sequence (looked up): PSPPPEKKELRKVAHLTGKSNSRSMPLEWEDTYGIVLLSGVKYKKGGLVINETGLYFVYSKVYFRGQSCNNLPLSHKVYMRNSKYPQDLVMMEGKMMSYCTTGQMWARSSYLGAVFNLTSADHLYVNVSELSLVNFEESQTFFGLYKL

[1] = target: T6, recombinant TRAIL (R&D Systems) (UniProt P50591 114-281); test: ELISA, coated antigen 100 ng/mL
T6 construct: Bought reagent, used coated in the ELISA and soluble at 100 ng/mL on H4 cells; also called Apo2L; TRAIL ligand

Measured: binding result

B1: mDR5-01 (antibody, V domains shown)
VH: EVQLQQSGAEFVKPGASVKLSCTASGFNIKDTFIHWVKQRPEQGLDWIGRIDPANGNTKYDPKFQGKATETTDTSSNTAYLQLSSLTSEDTAVYYCVRGLYTYYFDYWGQGTSVTVSS
VL: DIVLTQSPATLSVTPGDSVSLSCRASQSISNNLHWYQQKSHESPRLLIKFASQSISGIPSRFSGSGSGADFTLIINSVETEDFGMYFCQQGNSWPYTFGGGTKLEIK
no binding (tested: 1 µg/mL): DR4 (R&D Systems) | DcR1 (R&D Systems) | DcR2 (R&D Systems) | Fas (R&D Systems) | FasL (Tebu-bio) | [1]

B2: mDR5-05 (antibody, V domains shown)
VH: EVQLQQSGAELVKPGASVKLFCTASGFNIKDTHIHWVKQRPEQGLEWIGRIDPANGNTEYDPKFQGKATIRVDTSSDTAYLQLSSLTSEDTAVHYCARWGTNVYFAYWGQGTSVTVSS
VL: DIQLTQSPAIMSASPGEKVTISCSASSSVSYMYWYQQKPGSSPKPWIYRTSNLASGVPGRFSGSGSGTSYSLTISSMEAEDAATYYCQQYHSYPPTFGGGTKLEIK
notes: mouse IgG1 is implied
no binding (tested: 1 µg/mL): DR4 (R&D Systems) | DcR1 (R&D Systems) | DcR2 (R&D Systems) | Fas (R&D Systems) | FasL (Tebu-bio) | [1]
